Results from patent US20240124857A1, “COMPOSITION FOR GUT HEALTH” (DUPONT NUTRITION BIOSCIENCES APS, priority 2021, published 2024).

Experiment: Relative activity on ATP of CRC22110 single-site variants
Assay type: biochemical
Details: in comparison to CRC22110 wild type

Molecule | Relative activity (%) on ATP
CRC22110v10: single-site variant L206I of CRC22110 (SEQ ID NO: 9) (protein, listed as Gallaecimonas xiamenensis) ADKPACRAVFDAGSSGTRLFLYVQQEGGWQPWPGAKLGALADPVRQHQGPKAMAALAADLANSLEALRQDGPTNSEGQPRWQGFDWQQACRLQSVSVLATAGMRLAEQQDPVASVALWQEVQQALAGLLGPAVAIDARTLTGFEEGFYAWLAARARLGRSDMGIVEMGGASSQVAFPCPACDRADDAVQQVRLEGQTLDFYSYSFIGLGQDEAPKVLGVPHACRYGAGVKDPNWQLGQCQAQLPLTLGRALKDPYNFQGQGQGGYRQVPTEKAGVKDWLLTGAFQYNTPDQLDSCCLNQGQCYQPSTACFRVAYLPLYLDSLGVDPHSPDLDVSWTLGAVLCRNEQCLAPSKPPCRWRKAGCLAPSVGDGRPEGRPGQQPGGVQHRQH | 16%
CRC22110v3: single-site variant G207A of CRC22110 (SEQ ID NO: 9) (protein, listed as Gallaecimonas xiamenensis) ADKPACRAVFDAGSSGTRLFLYVQQEGGWQPWPGAKLGALADPVRQHQGPKAMAALAADLANSLEALRQDGPTNSEGQPRWQGFDWQQACRLQSVSVLATAGMRLAEQQDPVASVALWQEVQQALAGLLGPAVAIDARTLTGFEEGFYAWLAARARLGRSDMGIVEMGGASSQVAFPCPACDRADDAVQQVRLEGQTLDFYSYSFLALGQDEAPKVLGVPHACRYGAGVKDPNWQLGQCQAQLPLTLGRALKDPYNFQGQGQGGYRQVPTEKAGVKDWLLTGAFQYNTPDQLDSCCLNQGQCYQPSTACFRVAYLPLYLDSLGVDPHSPDLDVSWTLGAVLCRNEQCLAPSKPPCRWRKAGCLAPSVGDGRPEGRPGQQPGGVQHRQH | 60%
CRC22110v1: single-site variant S204A of CRC22110 (SEQ ID NO: 9) (protein, listed as Gallaecimonas xiamenensis) ADKPACRAVFDAGSSGTRLFLYVQQEGGWQPWPGAKLGALADPVRQHQGPKAMAALAADLANSLEALRQDGPTNSEGQPRWQGFDWQQACRLQSVSVLATAGMRLAEQQDPVASVALWQEVQQALAGLLGPAVAIDARTLTGFEEGFYAWLAARARLGRSDMGIVEMGGASSQVAFPCPACDRADDAVQQVRLEGQTLDFYSYAFLGLGQDEAPKVLGVPHACRYGAGVKDPNWQLGQCQAQLPLTLGRALKDPYNFQGQGQGGYRQVPTEKAGVKDWLLTGAFQYNTPDQLDSCCLNQGQCYQPSTACFRVAYLPLYLDSLGVDPHSPDLDVSWTLGAVLCRNEQCLAPSKPPCRWRKAGCLAPSVGDGRPEGRPGQQPGGVQHRQH | 37%
CRC22110v7: single-site variant S204T of CRC22110 (SEQ ID NO: 9) (protein, listed as Gallaecimonas xiamenensis) ADKPACRAVFDAGSSGTRLFLYVQQEGGWQPWPGAKLGALADPVRQHQGPKAMAALAADLANSLEALRQDGPTNSEGQPRWQGFDWQQACRLQSVSVLATAGMRLAEQQDPVASVALWQEVQQALAGLLGPAVAIDARTLTGFEEGFYAWLAARARLGRSDMGIVEMGGASSQVAFPCPACDRADDAVQQVRLEGQTLDFYSYTFLGLGQDEAPKVLGVPHACRYGAGVKDPNWQLGQCQAQLPLTLGRALKDPYNFQGQGQGGYRQVPTEKAGVKDWLLTGAFQYNTPDQLDSCCLNQGQCYQPSTACFRVAYLPLYLDSLGVDPHSPDLDVSWTLGAVLCRNEQCLAPSKPPCRWRKAGCLAPSVGDGRPEGRPGQQPGGVQHRQH | 53%
CRC22110v5: single-site variant G209A of CRC22110 (SEQ ID NO: 9) (protein, listed as Gallaecimonas xiamenensis) ADKPACRAVFDAGSSGTRLFLYVQQEGGWQPWPGAKLGALADPVRQHQGPKAMAALAADLANSLEALRQDGPTNSEGQPRWQGFDWQQACRLQSVSVLATAGMRLAEQQDPVASVALWQEVQQALAGLLGPAVAIDARTLTGFEEGFYAWLAARARLGRSDMGIVEMGGASSQVAFPCPACDRADDAVQQVRLEGQTLDFYSYSFLGLAQDEAPKVLGVPHACRYGAGVKDPNWQLGQCQAQLPLTLGRALKDPYNFQGQGQGGYRQVPTEKAGVKDWLLTGAFQYNTPDQLDSCCLNQGQCYQPSTACFRVAYLPLYLDSLGVDPHSPDLDVSWTLGAVLCRNEQCLAPSKPPCRWRKAGCLAPSVGDGRPEGRPGQQPGGVQHRQH | 16%
CRC22110v4: single-site variant L208A of CRC22110 (SEQ ID NO: 9) (protein, listed as Gallaecimonas xiamenensis) ADKPACRAVFDAGSSGTRLFLYVQQEGGWQPWPGAKLGALADPVRQHQGPKAMAALAADLANSLEALRQDGPTNSEGQPRWQGFDWQQACRLQSVSVLATAGMRLAEQQDPVASVALWQEVQQALAGLLGPAVAIDARTLTGFEEGFYAWLAARARLGRSDMGIVEMGGASSQVAFPCPACDRADDAVQQVRLEGQTLDFYSYSFLGAGQDEAPKVLGVPHACRYGAGVKDPNWQLGQCQAQLPLTLGRALKDPYNFQGQGQGGYRQVPTEKAGVKDWLLTGAFQYNTPDQLDSCCLNQGQCYQPSTACFRVAYLPLYLDSLGVDPHSPDLDVSWTLGAVLCRNEQCLAPSKPPCRWRKAGCLAPSVGDGRPEGRPGQQPGGVQHRQH | 74%
